This test has as its target KillerOrange. In words: crystal structure; KillerOrange; hanging drop vapor diffusion at 20°C; ~22 mg/ml protein in 20 mM Tris pH 8.0, 200 mM NaCl; reservoir 0.02M Na acetate pH 5.0, 1% gamma-PGA, 3% PEG 4K; data at 100 K.

The term stoichiometry N denotes a count of units in the complex or per binding partner.

In the case of KillerOrange, the stoichiometry N amounted to 2.

Source of the values: article PMC4689385.
